In US20070025992A1 (MOCHIDA PHARMACEUTICAL, published 2007):

T1: GPVI-Fc (fusion protein of the extracellular domain of human GPVI and the Fc fragment of human IgG1) (human, UniProt Q9HCN6 21-267)
T1 construct: extracellular domain; also called human soluble GPVI-Fc; GPVI-hFc; not shown: human IgG1 Fc domain from plasmid pM1304 (printed as '506 amino acids'), joined in frame through a BamHI site
T1 sequence (looked up): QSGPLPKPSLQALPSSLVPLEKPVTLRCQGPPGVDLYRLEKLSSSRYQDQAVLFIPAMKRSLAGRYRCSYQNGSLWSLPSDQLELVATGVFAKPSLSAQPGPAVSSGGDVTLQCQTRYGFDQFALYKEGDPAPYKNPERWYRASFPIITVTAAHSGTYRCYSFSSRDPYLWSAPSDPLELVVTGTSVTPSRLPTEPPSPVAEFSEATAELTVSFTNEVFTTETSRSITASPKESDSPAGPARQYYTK


Legend:
[1] = target: T1, GPVI-Fc (fusion protein of the …); test: SPR (BIACORE3000), GPVI-Fc immobilized on CM5 chip
[2] = target: T1, GPVI-Fc (fusion protein of the …); test: ELISA on immobilized GPVI-Fc (0.25 µg/well), 20 ng purified antibody, peroxidase-labeled anti-human kappa or lambda antibody, absorbance at 450 nm
Procedure: GPVI binding activity of the purified antibody that was obtained in EXAMPLE 2 was assayed by the ELISA method that was described in EXAMPLE 2. As substitute for the culture supernatant of hybridoma in EXAMPLE 2, 20 ng of the purified anti-GPVI monoclonal human antibody prepared in EXAMPLE 2 was added, and as a control, purified human IgM (Cappel) was used.
Thus it was confirmed that the prepared antibody specifically recognizes GPVI.

Row | Binder | Kd [1] | binding result [2]
1 | #2-4 antibody (anti-GPVI monoclonal human antibody produced by hybridoma clone #2-4) (antibody, V domains shown) VH: not shown VL: QSVLTQPPSVSAAPGQKVTISCSGSSSNIGNNYVSWYQQLPGTAPKLLIYDNNKRPSGIPDRFSGSKSGTSATLGITGLQTGDEADYYCGTWDSSLSAGVFGGGTKLTVL | 41.3 nM | –
2 | #2-37 (antibody, V domains shown, Human monoclonal antibody from a hybridoma; also called clone #2-37; #2-37 antibody) VH: EVQLVESGGGLVKPGGSLRLSCAASGFTFSDYYMSWIRQAPGKGLEWVSYITSSSSYTNYADSVKGRFTISRDNAKNSLYLQMNSLRAEDTAVYYCARDRAVRGVIIIRPPDYWGQGTLVTVSS VL: QSALTQPASVSGSPGQSITISCTGTSSDVGGYNYVSWYQQHPGKAPKLMIYDVSNRPSGVSNRFSGSKSGNTASLTISGLQAEDEADYYCSSYTSSSTLVFGGGTKLTVL | – | binds
